According to the PETadex activity labels (doi:10.1042/bj3320075):

Tests used:
Conditions in all cases: pH 7.1; 25 °C
p-NP-C2 = substrate: p-NP-C2
p-NP-C3 = substrate: p-NP-C3
p-NP-C4 = substrate: p-NP-C4
p-NP-C5 = substrate: p-NP-C5
p-NP-C6 = substrate: p-NP-C6
p-NP-C8 = substrate: p-NP-C8

B1: unnamed (protein)
chain: MKPENKLPVLDLISAEMKTVVNTLQPDLPPWPATGTIAEQRQYYTLERRFWNAGAPEMATRAYMVPTKYGQVETRLFCPQPDSPATLFYLHGGGFILGNLDTHDRIMRLLASYSQCTVIGIDYTLSPEARFPQAIEEIVAACCYFHQQAEDYQINMSRIGFAGDSAGAMLALASALWLRDKQIDCGKVAGVLLWYGLYGLRDSVTRRLLGGVWDGLTQQDLQMYEEAYLSNDADRESPYYCLFNNDLTREVPPCFIAGAEFDPLLDDSRLLYQTLAAHQQPCEFKLYPGTLHAFLHYSRMMKTADEALRDGAQFFTAQL
Km (p-NP-C2): 1500 µM | kcat (p-NP-C2): 30.8 s⁻¹ | kcat/Km (p-NP-C2): 20500 M⁻¹ s⁻¹ | Km (p-NP-C3): 700 µM | kcat (p-NP-C3): 30.9 s⁻¹ | kcat/Km (p-NP-C3): 44100 M⁻¹ s⁻¹ | Km (p-NP-C4): 500 µM | kcat (p-NP-C4): 30.9 s⁻¹ | kcat/Km (p-NP-C4): 61800 M⁻¹ s⁻¹ | Km (p-NP-C5): 260 µM | kcat (p-NP-C5): 20.5 s⁻¹ | kcat/Km (p-NP-C5): 78800 M⁻¹ s⁻¹ | Km (p-NP-C6): 220 µM | kcat (p-NP-C6): 6.2 s⁻¹ | kcat/Km (p-NP-C6): 28200 M⁻¹ s⁻¹ | Km (p-NP-C8): 160 µM | kcat (p-NP-C8): 0.21 s⁻¹ | kcat/Km (p-NP-C8): 1310 M⁻¹ s⁻¹
